Measurements as given in IntAct's records for PubMed 19468302.

B1: Rac GTPase-activating protein 1 (Homo sapiens), Q9H0H5 (parent)
chain: MDTMMLNVRNLFEQLVRRVEILSEGNEVQFIQLAKDFEDFRKKWQRTDHELGKYKDLLMKAETERSALDVKLKHARNQVDVEIKRRQRAEADCEKLERQIQLIREMLMCDTSGSIQLSEEQKSALAFLNRGQPSSSNAGNKRLSTIDESGSILSDISFDKTDESLDWDSSLVKTFKLKKREKRRSTSRQFVDGPPGPVKKTRSIGSAVDQGNESIVAKTTVTVPNDGGPIEAVSTIETVPYWTRSRRKTGTLQPWNSDSTLNSRQLEPRTETDSVGTPQSNGGMRLHDFVSKTVIKPESCVPCGKRIKFGKLSLKCRDCRVVSHPECRDRCPLPCIPTLIGTPVKIGEGMLADFVSQTSPMIPSIVVHCVNEIEQRGLTETGLYRISGCDRTVKELKEKFLRVKTVPLLSKVDDIHAICSLLKDFLRNLKEPLLTFRLNRAFMEAAEITDEDNSIAAMYQAVGELPQANRDTLAFLMIHLQRVAQSPHTKMDVANLAKVFGPTIVAHAVPNPDPVTMLQDIKRQPKVVERLLSLPLEYWSQFMMVEQENIDPLHVIENSNAFSTPQTPDIKVSLLGPVTTPEHQLLKTPSSSSLSQRVRSTLTKNTPRFGSKSKSATNLGRQGNFFASPMLK
B2: Rac GTPase-activating protein 1 (Homo sapiens), Q9H0H5 (parent)
chain: B1 chain
partner: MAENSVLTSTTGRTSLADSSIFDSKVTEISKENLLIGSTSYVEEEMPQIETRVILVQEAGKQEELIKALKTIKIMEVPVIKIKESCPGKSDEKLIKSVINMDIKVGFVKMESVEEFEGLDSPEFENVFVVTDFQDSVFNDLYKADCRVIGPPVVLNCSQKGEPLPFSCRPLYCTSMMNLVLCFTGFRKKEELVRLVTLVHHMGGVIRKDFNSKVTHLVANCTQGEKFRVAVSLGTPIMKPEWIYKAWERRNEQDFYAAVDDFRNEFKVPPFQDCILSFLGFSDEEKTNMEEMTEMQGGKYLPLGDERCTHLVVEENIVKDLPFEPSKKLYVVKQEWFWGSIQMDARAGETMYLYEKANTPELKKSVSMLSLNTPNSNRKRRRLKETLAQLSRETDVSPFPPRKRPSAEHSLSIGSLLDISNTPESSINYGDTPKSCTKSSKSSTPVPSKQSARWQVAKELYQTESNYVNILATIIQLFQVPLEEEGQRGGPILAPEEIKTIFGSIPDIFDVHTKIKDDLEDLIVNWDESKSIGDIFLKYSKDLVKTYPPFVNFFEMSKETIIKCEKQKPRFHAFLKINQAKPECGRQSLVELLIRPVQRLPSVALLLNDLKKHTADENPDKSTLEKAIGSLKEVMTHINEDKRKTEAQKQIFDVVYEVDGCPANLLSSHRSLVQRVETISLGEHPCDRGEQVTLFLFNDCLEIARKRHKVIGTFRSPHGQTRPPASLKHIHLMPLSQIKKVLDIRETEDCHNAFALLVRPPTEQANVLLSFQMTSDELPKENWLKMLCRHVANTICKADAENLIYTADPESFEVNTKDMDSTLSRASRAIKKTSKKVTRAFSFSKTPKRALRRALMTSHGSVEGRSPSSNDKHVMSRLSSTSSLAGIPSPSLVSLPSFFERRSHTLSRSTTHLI

Variants of: B1
Details: with plk1_human PLK1, P53350
Sequence of plk1_human PLK1, P53350 (P53350 whole entry): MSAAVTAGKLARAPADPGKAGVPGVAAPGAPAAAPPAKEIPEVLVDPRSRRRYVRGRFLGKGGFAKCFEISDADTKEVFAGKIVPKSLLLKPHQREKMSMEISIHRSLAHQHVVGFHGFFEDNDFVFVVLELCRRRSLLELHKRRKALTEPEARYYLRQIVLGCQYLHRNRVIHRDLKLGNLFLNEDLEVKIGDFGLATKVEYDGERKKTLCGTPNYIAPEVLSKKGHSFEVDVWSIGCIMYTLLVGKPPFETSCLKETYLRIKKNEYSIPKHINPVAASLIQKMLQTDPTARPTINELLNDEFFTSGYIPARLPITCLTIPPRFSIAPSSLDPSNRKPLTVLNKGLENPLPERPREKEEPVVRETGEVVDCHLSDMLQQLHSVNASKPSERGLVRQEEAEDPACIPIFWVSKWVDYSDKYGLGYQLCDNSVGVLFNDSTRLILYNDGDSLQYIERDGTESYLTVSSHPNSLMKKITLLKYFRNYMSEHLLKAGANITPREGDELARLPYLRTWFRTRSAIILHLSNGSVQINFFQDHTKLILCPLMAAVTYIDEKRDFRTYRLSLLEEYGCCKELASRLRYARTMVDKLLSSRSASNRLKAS

Q: Which “effect of a mutation on the interaction” value does the source give for S157A;S164A;S170A;S214A;T260A here?
A: decreasing interaction strength

Variants of: B2
Details: with ect2_human ECT2, Q9H8V3

Q: S157A was tested. Which “effect of a mutation on the interaction” value did it give?
A: decreasing interaction

Q: Which “effect of a mutation on the interaction” value does the source give for S157A;S164A;S170A here?
A: disrupting interaction

Q: S157A;S164A;S170A;S214A;T260A was tested. Which “effect of a mutation on the interaction” value did it give?
A: decreasing interaction strength
